According to publication PMC11542177, “Recurrent Neurodevelopmentally Associated Variants of the Pre-mRNA Splicing Factor U2AF2 Alter RNA Binding Affinities and Interactions”:

Legend:
Assay in all cases: fluorescence anisotropy; Fluorescence anisotropy: 25 nM RNA, 100 mM NaCl, 25 mM HEPES pH 6.8, 0.2 mM TCEP; temperature not stated; three replicates
Conditions in all cases: protein: recombinant; label: 5'-fluorescein; single strand
[1] = biological target: U2AF2 12L Arg150His (UniProt P26368 141-342, R150H)
[2] = biological target: U2AF2 12L Arg149Trp (UniProt P26368 141-342, R149W)
[3] = biological target: U2AF2 12L Arg150Cys (UniProt P26368 141-342, R150C)
[4] = biological target: U2AF2 12L WT (UniProt P26368 141-342)
Chain of U2AF2 12L WT (P26368 141-342): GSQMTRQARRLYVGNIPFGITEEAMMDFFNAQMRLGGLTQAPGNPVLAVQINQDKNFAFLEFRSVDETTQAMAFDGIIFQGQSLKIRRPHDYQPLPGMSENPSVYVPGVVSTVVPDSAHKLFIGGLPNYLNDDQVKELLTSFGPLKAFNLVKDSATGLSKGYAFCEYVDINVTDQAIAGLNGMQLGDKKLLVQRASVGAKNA

Chain of U2AF2 12L Arg150His (P26368 141-342 R150H): as the sequence (P26368 141-342) above, with R10H counted along it
Chain of U2AF2 12L Arg149Trp (P26368 141-342 R149W): as the sequence (P26368 141-342) above, with R9W counted along it
Chain of U2AF2 12L Arg150Cys (P26368 141-342 R150C): as the sequence (P26368 141-342) above, with R10C counted along it

B1: nine-uridine consensus Py tract RNA (ssRNA)
RNA: UUUUUUUUU
[1]
  binding signal: ~4 fold decrease in affinity vs WT
[2]
  binding signal: ~3 fold decrease in affinity vs WT
[3]
  binding signal: ~5 fold decrease in affinity vs WT
[4]
  binding result: binds
